Values quoted from earlier work, collected in publication PMC3176300.

How the values were obtained:
[1] = molecular target: α-Galactosidase A (Homo sapiens) (UniProt P06280); assay: SPR
[2] = molecular target: Sortilin (Homo sapiens) (UniProt Q99523)
[3] = molecular target: Megalin (UniProt P98164)

Chain of UniProt Q99523 (Q99523 78-755): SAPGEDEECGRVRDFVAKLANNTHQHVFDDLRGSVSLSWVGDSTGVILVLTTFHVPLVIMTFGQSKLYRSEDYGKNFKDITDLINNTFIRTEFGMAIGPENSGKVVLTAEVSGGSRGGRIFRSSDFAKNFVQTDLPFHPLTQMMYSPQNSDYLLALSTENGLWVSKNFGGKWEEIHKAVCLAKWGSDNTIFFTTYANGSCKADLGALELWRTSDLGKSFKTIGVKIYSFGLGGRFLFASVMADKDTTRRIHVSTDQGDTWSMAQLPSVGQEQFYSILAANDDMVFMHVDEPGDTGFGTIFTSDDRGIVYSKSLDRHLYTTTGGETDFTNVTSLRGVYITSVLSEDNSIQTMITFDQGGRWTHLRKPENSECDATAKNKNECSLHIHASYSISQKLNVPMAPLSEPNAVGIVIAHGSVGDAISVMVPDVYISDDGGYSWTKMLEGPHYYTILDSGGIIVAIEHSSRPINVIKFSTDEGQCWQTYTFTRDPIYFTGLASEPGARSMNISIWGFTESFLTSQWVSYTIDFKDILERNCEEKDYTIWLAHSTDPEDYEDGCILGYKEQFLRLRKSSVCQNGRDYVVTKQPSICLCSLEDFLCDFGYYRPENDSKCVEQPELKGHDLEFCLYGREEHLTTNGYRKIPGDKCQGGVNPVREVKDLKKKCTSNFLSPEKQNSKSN
Chain of UniProt P06280 (P06280 32-429): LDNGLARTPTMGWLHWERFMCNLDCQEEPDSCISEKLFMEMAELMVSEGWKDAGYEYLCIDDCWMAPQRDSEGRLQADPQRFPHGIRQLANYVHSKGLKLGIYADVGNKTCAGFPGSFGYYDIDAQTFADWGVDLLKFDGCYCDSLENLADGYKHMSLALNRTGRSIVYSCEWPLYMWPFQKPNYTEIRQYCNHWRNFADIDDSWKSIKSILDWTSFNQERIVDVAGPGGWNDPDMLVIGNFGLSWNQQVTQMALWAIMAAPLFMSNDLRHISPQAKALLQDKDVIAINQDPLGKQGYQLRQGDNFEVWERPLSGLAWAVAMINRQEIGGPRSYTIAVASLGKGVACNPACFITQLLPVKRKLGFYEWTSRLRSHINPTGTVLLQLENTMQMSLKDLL

Kd [1] | Kd [2] | Kd [3] | Substance
600 nM | – | – | Megalin (from UniProt P98164)
– | 78 nM | 8 nM | RAP (from UniProt P30533)
